We go through two proteins from article PMC5113301 (Cell Research, 2016).

The data set “crystal structure” concerns the molecule itself. Description: crystal structure.
The data set “cryo-EM structure” deals with the molecule itself. Description: cryo-EM structure.

B1: seleno-methionine substituted AcrF3 (anti-CRISPR protein encoded by gene 35 from phage JBD5) (natural protein)
chain: MSNTISDRIVARSVIEAARFIQSWEDADPDSLTEDQVLAAAGFAARLHEGLQATVLQRLVDESNHEEYREFKAWEEALLNADGRVASSPFADWGWWYRIANVMLATASQNVGVTWGSRVHGRLMAIFQDKFKQRYEEQA
modifications: seleno-methionine substituted
For the protein B1, in the data set “crystal structure”, the “stoichiometry N” value stood at 2.

B2: AcrF3 (as in the PaeCas3-AcrF3 complex) (natural protein, phage JBD5)
chain: MSNTISDRIVARSVIEAARFIQSWEDADPDSLTEDQVLAAAGFAARLHEGLQATVLQRLVDESNHEEYREFKAWEEALLNADGRVASSPFADWGWWYRIANVMLATASQNVGVTWGSRVHGRLMAIFQDKFKQRYEEQA
Regarding B2, the “stoichiometry N” value in “cryo-EM structure” was found to be 2.
